Reference: publication PMC2872913

Target: taxol-stabilized microtubules
Test: co-sedimentation

- fold weaker affinity against MBD not phosphorylated by aurora A: 5 fold
Substance: p150^glued MBD-(His)6 after incubation with aurora A protein kinase and ATP (domain or fragment)
